Source: PMC6345952, “Novel pseudo-aspartic peptidase from the midgut of the tick Rhipicephalus microplus” (Scientific Reports, 2019)

Biological target: T1, Rhipicephalus microplus pseudo-aspartic peptidase wild type (Rhipicephalus microplus, UniProt A0A411AQW7 21-361)
T1 construct: RmPAP, pseudo-aspartic peptidase of Rhipicephalus microplus (GenBank MH427522); mature RmPAP (R21-K361) without the putative signal peptide M1-A20; lacks the second catalytic Asp (Pro242); Cloned into pET14b with an N-terminal His tag; the primers that fix the construct's limits are in Sup; also called RmPAPWT; RmPAP
T1 sequence: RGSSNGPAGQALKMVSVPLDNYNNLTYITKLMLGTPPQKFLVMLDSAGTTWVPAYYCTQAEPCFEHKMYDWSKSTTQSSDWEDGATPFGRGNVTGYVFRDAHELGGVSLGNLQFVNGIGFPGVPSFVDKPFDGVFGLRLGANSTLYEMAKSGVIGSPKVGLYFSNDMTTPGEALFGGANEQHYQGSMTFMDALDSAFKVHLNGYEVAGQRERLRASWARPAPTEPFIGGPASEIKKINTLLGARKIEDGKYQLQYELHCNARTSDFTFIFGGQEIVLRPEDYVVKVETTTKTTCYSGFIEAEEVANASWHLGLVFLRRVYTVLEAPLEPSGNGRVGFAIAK
Assay: SPR; Biacore T-200; bovine hemoglobin immobilised on a CM5 chip (FC 2) in acetate buffer pH 5.5, BSA on FC 1 as reference; increasing concentrations of RmPAPWT injected in 10 mM phosphate-citrate buffer, pH 4, 0.15 M NaCl, 20 uL/min; steady-state response (FC2 - FC1) fitted
Conditions: both partners purified

B1: bovine hemoglobin (complex)
chain 1: not shown
chain 2: not shown
notes: hemoglobin alpha chain, bovine; hemoglobin beta chain, bovine; the heme groups are not written
How did the Kd turn out when B1 was run?
Its Kd is 33.5 nM.
